Source: patent US20240002497A1 (Merck Sharp & Dohme, published 2024)
Like-named read-outs stand apart in the source and are kept apart here.

Key:
huNav1.7α+β1 [1] = target: T1, huNav1.7α+β1 (human, UniProt Q15858 1-1988; Q07699 19-218); test: binding FACS, HEK293 cells
T1 construct: also called huNav1.7-beta1; HEKa/β1
Experimental: (§1) Binding of the ISVDs to cell-expressed Nav1.7α was detected via murine anti-Flag (Sigma, catalog #F1804). Briefly, cells were resuspended in FACS buffer (PBS, 10% FBS, NaN₃) and transferred to a 96-well V-bottom plate at 1×10^5 cells/well. Purified FLAG3-tagged ISVD was diluted in FACS buffer and added to the cells for 30 minutes at 4° C. […] Prior to the read-out, the samples were resuspended in 1 μg/mL propidium iodide (Sigma, catalog #P4170) to exclude dead cells. Between each step, the cells were centrifuged for 5 minutes at 200 grams and washed with 100 μL/well FACS buffer.
(§2) Crude periplasmic extracts containing ISVDs from phage display selections (as described above) were screened in FACS for binding to huNav1.7α but not to huNav1.5a. […] As used in Table 8, the drawings, and throughout the description, Navβ1, Navβ2, and Navβ3 are human homologs unless specifically identified otherwise.

huNav1.7α [2] = target: T2, huNav1.7α (human, UniProt Q15858 1-1988); test: binding FACS, HEKa cells
T2 construct: HEK cells expressing the α subunit alone; also called HEKa; HEK huNav1.7α
Outline: (§3)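 Cells in FACS buffer (PBS, 10% FBS, NaN₃) were incubated with purified FLAG3-tagged ISVD for 30 minutes at 4° C. Bound ISVD was detected by flow cytometry with murine anti-Flag, and dead cells were excluded with 1 μg/mL propidium iodide.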

huNav1.6α = target: T3, huNav1.6α (human, UniProt Q9UQD0 1-1980); test: binding FACS on stable huNav1.x paralog HEK293T cell lines
T3 construct: also called huNav1.6 (alpha subunit)

huNav1.2α = target: T4, huNav1.2α (human, UniProt Q99250 1-2005); test: as above
T4 construct: also called huNav1.2 (alpha subunit)
T4 sequence (Q99250 whole entry): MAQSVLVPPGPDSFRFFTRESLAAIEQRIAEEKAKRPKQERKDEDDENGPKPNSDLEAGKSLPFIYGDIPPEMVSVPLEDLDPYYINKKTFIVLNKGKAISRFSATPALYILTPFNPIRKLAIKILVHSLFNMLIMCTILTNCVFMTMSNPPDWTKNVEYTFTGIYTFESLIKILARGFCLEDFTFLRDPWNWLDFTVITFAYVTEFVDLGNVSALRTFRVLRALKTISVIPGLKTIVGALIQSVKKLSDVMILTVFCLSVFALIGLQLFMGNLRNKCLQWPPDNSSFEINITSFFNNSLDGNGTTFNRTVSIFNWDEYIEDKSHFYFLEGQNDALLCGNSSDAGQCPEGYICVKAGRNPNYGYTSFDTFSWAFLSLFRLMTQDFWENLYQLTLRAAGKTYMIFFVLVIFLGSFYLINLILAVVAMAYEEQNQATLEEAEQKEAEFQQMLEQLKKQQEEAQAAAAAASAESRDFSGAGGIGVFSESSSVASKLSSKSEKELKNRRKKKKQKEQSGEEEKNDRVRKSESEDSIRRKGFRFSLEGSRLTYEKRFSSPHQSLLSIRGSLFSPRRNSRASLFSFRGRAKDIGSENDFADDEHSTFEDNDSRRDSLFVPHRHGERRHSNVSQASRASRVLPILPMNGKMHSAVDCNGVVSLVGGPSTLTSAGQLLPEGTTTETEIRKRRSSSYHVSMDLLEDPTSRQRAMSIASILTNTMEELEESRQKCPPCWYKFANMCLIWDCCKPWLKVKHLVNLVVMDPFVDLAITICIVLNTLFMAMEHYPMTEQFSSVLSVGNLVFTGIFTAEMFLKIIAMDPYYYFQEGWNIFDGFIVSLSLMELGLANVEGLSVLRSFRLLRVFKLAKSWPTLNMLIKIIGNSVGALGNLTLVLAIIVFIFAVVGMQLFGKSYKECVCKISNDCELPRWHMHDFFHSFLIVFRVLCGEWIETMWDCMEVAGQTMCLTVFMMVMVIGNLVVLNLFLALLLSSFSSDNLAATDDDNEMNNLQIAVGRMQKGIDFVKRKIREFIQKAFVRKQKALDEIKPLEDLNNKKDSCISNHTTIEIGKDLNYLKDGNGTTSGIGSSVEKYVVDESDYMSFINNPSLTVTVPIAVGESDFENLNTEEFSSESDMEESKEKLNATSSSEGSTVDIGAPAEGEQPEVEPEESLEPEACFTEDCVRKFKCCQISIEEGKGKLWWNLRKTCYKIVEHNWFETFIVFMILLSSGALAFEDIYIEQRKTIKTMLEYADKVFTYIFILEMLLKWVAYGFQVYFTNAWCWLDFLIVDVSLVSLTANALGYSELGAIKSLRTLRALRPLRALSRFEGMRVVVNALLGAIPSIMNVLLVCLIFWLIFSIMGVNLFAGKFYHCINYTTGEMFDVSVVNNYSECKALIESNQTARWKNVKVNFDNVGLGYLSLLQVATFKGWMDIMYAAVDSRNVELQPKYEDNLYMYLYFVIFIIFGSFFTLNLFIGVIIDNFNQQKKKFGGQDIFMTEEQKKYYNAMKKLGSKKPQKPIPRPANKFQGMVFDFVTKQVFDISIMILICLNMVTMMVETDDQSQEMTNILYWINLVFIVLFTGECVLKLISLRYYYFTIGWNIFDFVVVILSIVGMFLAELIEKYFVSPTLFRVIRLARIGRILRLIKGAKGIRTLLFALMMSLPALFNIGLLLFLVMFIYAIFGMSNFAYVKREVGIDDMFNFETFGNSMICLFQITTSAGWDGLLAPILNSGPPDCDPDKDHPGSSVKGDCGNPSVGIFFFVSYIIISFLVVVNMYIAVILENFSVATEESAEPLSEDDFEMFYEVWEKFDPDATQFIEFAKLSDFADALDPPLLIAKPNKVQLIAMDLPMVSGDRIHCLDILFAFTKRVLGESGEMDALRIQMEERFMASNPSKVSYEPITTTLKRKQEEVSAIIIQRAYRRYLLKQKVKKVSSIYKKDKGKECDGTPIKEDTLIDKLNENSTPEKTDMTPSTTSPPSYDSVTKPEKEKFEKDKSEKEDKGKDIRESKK

huNav1.4α = target: T5, huNav1.4α (human, UniProt P35499 1-1836); test: as above
T5 construct: also called huNav1.4 (alpha subunit)

huNav1.1α = huNav1.1α (human, UniProt P35498 1-2009); test: as above
huNav1.8α = target: T6, huNav1.8α (human, UniProt Q9Y5Y9 1-1956); test: as above
T6 construct: also called huNav1.8 (alpha subunit)
T6 sequence (Q9Y5Y9 whole entry): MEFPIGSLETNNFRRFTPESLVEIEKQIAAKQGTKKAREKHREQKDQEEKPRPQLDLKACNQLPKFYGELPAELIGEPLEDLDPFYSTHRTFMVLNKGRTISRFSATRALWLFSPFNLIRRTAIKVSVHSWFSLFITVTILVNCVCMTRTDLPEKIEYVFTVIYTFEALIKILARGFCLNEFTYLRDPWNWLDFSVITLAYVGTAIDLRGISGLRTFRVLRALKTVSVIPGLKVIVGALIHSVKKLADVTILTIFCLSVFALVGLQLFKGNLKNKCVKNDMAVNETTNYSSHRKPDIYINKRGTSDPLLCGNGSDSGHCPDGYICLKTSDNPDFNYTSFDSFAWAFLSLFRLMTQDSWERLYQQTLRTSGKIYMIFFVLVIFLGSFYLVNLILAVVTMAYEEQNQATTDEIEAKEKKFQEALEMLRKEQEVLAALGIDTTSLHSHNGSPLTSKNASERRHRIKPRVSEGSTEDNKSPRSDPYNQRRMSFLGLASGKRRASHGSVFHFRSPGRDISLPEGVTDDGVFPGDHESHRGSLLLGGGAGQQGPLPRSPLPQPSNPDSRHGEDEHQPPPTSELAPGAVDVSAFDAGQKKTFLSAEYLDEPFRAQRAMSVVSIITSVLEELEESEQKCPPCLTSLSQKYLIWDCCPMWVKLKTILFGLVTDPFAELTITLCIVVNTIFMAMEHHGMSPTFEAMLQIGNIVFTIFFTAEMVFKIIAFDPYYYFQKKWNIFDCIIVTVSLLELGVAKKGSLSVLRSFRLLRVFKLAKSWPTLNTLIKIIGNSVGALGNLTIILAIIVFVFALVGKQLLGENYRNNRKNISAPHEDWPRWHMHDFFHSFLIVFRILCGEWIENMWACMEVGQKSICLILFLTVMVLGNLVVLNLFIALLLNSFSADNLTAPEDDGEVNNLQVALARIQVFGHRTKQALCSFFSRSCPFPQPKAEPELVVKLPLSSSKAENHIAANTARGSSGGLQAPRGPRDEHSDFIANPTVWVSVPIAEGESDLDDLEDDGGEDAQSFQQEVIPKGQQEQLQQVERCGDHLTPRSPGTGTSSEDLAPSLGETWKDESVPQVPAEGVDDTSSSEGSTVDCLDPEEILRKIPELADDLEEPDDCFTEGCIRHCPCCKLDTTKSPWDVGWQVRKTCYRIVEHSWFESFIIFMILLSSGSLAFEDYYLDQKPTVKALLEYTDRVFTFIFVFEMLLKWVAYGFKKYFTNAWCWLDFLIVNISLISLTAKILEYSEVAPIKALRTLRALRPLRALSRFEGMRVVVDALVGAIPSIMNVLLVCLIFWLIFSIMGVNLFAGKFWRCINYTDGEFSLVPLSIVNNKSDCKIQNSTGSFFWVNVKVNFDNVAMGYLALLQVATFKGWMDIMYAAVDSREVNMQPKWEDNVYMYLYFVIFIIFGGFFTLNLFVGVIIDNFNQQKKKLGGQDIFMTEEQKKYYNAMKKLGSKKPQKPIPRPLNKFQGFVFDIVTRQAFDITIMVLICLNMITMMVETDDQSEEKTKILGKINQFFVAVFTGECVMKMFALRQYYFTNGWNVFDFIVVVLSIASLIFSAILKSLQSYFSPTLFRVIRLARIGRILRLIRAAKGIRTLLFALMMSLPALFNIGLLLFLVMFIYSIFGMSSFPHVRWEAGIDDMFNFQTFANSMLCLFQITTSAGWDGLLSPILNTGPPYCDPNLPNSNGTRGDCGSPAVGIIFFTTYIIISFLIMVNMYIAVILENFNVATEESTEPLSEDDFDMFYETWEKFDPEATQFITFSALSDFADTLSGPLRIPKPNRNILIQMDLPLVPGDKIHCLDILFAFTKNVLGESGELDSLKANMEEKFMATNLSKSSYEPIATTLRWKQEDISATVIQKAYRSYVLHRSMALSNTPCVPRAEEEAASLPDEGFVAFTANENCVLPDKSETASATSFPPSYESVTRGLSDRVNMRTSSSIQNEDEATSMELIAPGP

huNav1.3α = target: T7, huNav1.3α (human, UniProt Q9NY46 1-2000); test: as above
T7 construct: also called huNav1.3 (alpha subunit)

huNav1.5α = target: T8, huNav1.5α (human, UniProt Q14524 1-2016); test: as above
T8 construct: also called huNav1.5 (alpha subunit)

rhNav1.7α+β1-β2-β3 = target: T9, rhNav1.7α+β1-β2-β3 (rhesus monkey α subunit with human β …); test: binding FACS, CHO FlpIn cells
T9 construct: P2A cleaves it into α, β1, β2, β3; also called rhNav1.7-beta1-beta2-beta3
Experimental: as §1, §2

huNav1.7α+β1-β2-β3 [3] = target: T10, huNav1.7α+β1-β2-β3 (human, UniProt Q15858 1-1988; Q07699 19-218; O60939 30-215; Q9NY72 23-215); test: binding FACS, CHO FlpIn cells
T10 construct: 5N11S variant; also called huNav1.7-beta1-beta2-beta3; huNav1.7α+Navβ1-Navβ2-Navβ3
Outline: as §3

huNav1.7α+β1 [4] = target: T1, huNav1.7α+β1; test: binding FACS, HEKa/β1 cells
Outline: as §3

[5] = target: T11, huNav157chimera14+β1-β2-β3 (human, UniProt Q07699 19-218; O60939 30-215; Q9NY72 23-215); test: binding FACS, HEK FlpIn cells
T11 construct: HEK FlpIn line; also called huNav157 chimera 14-beta1-beta2-beta3; Nav157ch14-β1-β2-β3
Experimental: as §1, §2

huNav1.7α+β1-β2-β3 [6] = target: T10, huNav1.7α+β1-β2-β3; test: binding FACS, HEK FlpIn cells
Experimental: as §1, §2

huNav1.5α+β1-β2-β3 = target: T12, huNav1.5α+β1-β2-β3 (human, UniProt Q14524 1-2016; A5A6L6 19-218; O60939 30-215; Q2KI11 23-215); test: binding FACS, HEK FlpIn cells
T12 construct: in the cell P2A cleaves it into α, β1, β2, β3; also called huNav1.5-beta1-beta2-beta3
Experimental: as §1, §2

huNav1.7α [7] = target: T2, huNav1.7α; test: binding FACS, HEKa cells; remark: listed apart in the source
huNav1.7α+β1-β2-β3 [8] = target: T10, huNav1.7α+β1-β2-β3; test: binding FACS, CHO FlpIn cells; remark: listed apart in the source
Experimental: as §1, §2

huNav1.7α+β1 [9] = target: T1, huNav1.7α+β1; test: binding FACS, HEKa/β1 cells; remark: listed apart in the source
huNav1.7α + β1 [10] = target: huNav1.7α + β1 (human); test: cell-based or functional assay
rhNav1.7α + β1-β2-β3 [11] = target: rhNav1.7α + β1-β2-β3 (rhesus monkey); test: cell-based or functional assay
huNav1.7α [12] = target: T13, huNav1.7α (human, UniProt Q15858 1-1988); test: binding FACS, HEK
T13 construct: HEK cells expressing the α subunit without β subunits; also called huNav1.7 (alpha-subunit); Human Nav1.7α

huNav1.7α + β1 [13] = target: T14, huNav1.7α + β1 (human); test: binding FACS, HEK
T14 construct: HEK293 cells; also called huNav1.7-beta1; huNav1.7-β1

huNav1.7α + β1 [14] = target: T14, huNav1.7α + β1; test: cell-based or functional assay; remark: listed apart in the source
rhNav1.7α + β1-β2-β3 [15] = target: rhNav1.7α + β1-β2-β3 (rhesus monkey); test: cell-based or functional assay; remark: listed apart in the source
rhNav1.7α + β1-β2-β3 [16] = target: T15, rhNav1.7α + β1-β2-β3 (rhesus monkey); test: competition FACS vs EC40 of F103275B05(N93R), CHO FlpIn
T15 construct: also called rhNav1.7-beta1-beta2-beta3; rhNav1.7-β1-β2-β3

huNav1.7α [17] = target: T13, huNav1.7α; test: competition FACS vs EC25 of F103275B05(N93R), HEK
huNav1.7α + β1 [18] = target: T14, huNav1.7α + β1; test: competition FACS vs EC25 of F103275B05(N93R), HEK
huNav1.7α + β1-β2-β3 [19] = target: T16, huNav1.7α + β1-β2-β3 (human, UniProt Q15858 1-1988; A5A6L6 19-218; O60939 30-215; Q2KI11 23-215); test: competition FACS vs EC25 of F103275B05(N93R), HEK FlpIn
T16 construct: also called huNav1.7-beta1-beta2-beta3; huNav1.7-β1-β2-β3

huNav1.7α + β1-β2-β3 [20] = target: T16, huNav1.7α + β1-β2-β3; test: competition FACS vs EC25 of F103275B05(N93R), CHO FlpIn
huNav1.7α [21] = target: T13, huNav1.7α; test: cell-based or functional assay
Rhesus Nav1.7α = Rhesus Nav1.7α (rhesus, UniProt Q15858 1-1988 (human entry)); test: cell-based or functional assay
huNav1.7α + β1-β2-β3 [22] = target: T16, huNav1.7α + β1-β2-β3; test: cell-based or functional assay
rhNav1.7α + β1-β2-β3 [23] = target: T15, rhNav1.7α + β1-β2-β3; test: cell-based or functional assay; remark: listed apart in the source
huNav1.7α + β1 [24] = target: T14, huNav1.7α + β1; test: cell-based or functional assay; remark: listed apart in the source

B1: F0103387G05 (parental)-FLAG-HIS6 (VHH)
VHH: EVQLVESGGGLVQAGGSLRLSCDASGRILRIGYMRWHRQGAGKQREFVARITDDSATDYADSVKGRFTISRDNAKNTVYLQMNNLNPEDTAVYYCEALVTASVRGGSIHSGTYWGRGTLVTVSS
huNav1.7α+β1 [1]
  EC50: 1.2 nM
huNav1.7α [2]
  EC50: 2.7 nM
huNav1.6α
  binding result: no binding
huNav1.2α
  binding result: no binding
huNav1.4α
  binding result: no binding
huNav1.1α
  binding result: no binding
huNav1.8α
  binding result: no binding
huNav1.3α
  binding result: no binding
huNav1.5α
  binding result: no binding
rhNav1.7α+β1-β2-β3
  binding result: no binding
huNav1.7α+β1-β2-β3 [3]
  EC50: 4.7 nM
huNav1.7α+β1 [4]
  EC50: 1.7 nM
[5]
  EC50: 3.6 nM
huNav1.7α+β1-β2-β3 [6]
  EC50: 3.1 nM
huNav1.5α+β1-β2-β3
  binding result: no binding

B2: F0103275B05 (parental)-FLAG-HIS6 (VHH)
VHH: EVQLVESGGGLVQPGGSLRLSCAASGSIFNINSMAWYRRAPGKQRELVASSTNGGSTNYADSVKGRFTISRDNAKRVYLQMNSLTPEDTAVYYCNALLQPSIYDISRTYWGQGTLVTVSS
notes: also called F01033275B05
huNav1.7α+β1 [1]
  EC50: 28 nM
huNav1.7α [7]
  EC50: 10 nM
huNav1.6α
  binding result: no binding
huNav1.2α
  binding result: no binding
huNav1.4α
  binding result: no binding
huNav1.1α
  binding result: no binding
huNav1.8α
  binding result: no binding
huNav1.3α
  binding result: no binding
huNav1.5α
  binding result: no binding
huNav1.7α+β1-β2-β3 [8]
  EC50: 27 nM
[5]
  EC50: 39 nM
huNav1.7α+β1-β2-β3 [6]
  EC50: 37 nM
huNav1.5α+β1-β2-β3
  binding result: no binding
huNav1.7α+β1 [9]
  EC50: 48 nM

B3: F010300659 (VHH)
VHH: EVQLVESGGGLVQPGGSLRLSCAASGPVFNINSMAWYRRAPGKQRELVAYSTPGWDWNYADSVKGRFTISRDNAKRVYLQMNSLTPEDTAVYYCRWLLQPSIYDISRTYWGQGTLVTVSS
notes: also called F0103275B05(S27P, I28V, S50Y, N53P, G55W, S56D, T57W, N93R, A94W)-FLAG3 + HIS6
huNav1.7α + β1 [10]
  Qpatch IC50 [M], HEK cells: 8.5e-08 M
rhNav1.7α + β1-β2-β3 [11]
  Qpatch IC50 [M], HEK cells: 1.8e-07 M
huNav1.7α [12]
  EC50: 5.4 nM
huNav1.7α + β1 [13]
  EC50: 11 nM
huNav1.7α + β1 [14]
  Qpatch IC50: 85 nM
rhNav1.7α + β1-β2-β3 [15]
  Qpatch IC50: 199 nM

B4: 66ASP (Fc fusion)
chain: EVQLVESGGGLVQPGGSLRLSCAASGPVFNINSMAWYRRAPGKQRELVAYSTPGWDWNYADSVKGRFTISRDNAKRVYLQMNSLTPEDTAVYYCRWLLQPSIYDISRTYWGQGTLVTVSS
notes: also called F010300659-5GS-Fc; not shown: 5GS linker; Fc moiety
huNav1.7α + β1 [10]
  Qpatch IC50 [M], HEK cells: 9.2e-08 M
rhNav1.7α + β1-β2-β3 [11]
  Qpatch IC50 [M], HEK cells: 5.2e-08 M
huNav1.7α [12]
  EC50: 61 nM
huNav1.7α + β1 [13]
  EC50: 42 nM

B5: F010302375 (bispecific antibody)
chain: DVQLVESGGGLVQPGGSLRLSCAASGSIFNINSMAWYRRAPGKQRELVASSTNGGSTNYADSVKGRFTISRDNAKRVYLQMNSLTPEDTAVYYCRALLQPSIYDISRTYWGQGTLVTVSSGGGGSGGGGSGGGGSGGGGSGGGGSGGGGSGGGGSGGGGSGGGGSGGGGSEVQLVESGGGLVQAGGSLRLSCAASGRAFSTLAMGWFRQAPGKEREFVAAISRNGNNSATGDSLKGRFTISRDSTKSTVFLQMNTLKPEDTAVYYCAAISTPSASHPYVRKESYRYWGQGTQVTVSSGAADYKDHDGDYKDHDIDYKDDDDKGAAHHHHHH
notes: also called F0103275B05(E1D, N93R)-50GS-F0103478E09(L108Q)-FLAG3-HIS6
rhNav1.7α + β1-β2-β3 [16]
  IC50: 6.5 nM
huNav1.7α [17]
  IC50: 110 nM
huNav1.7α + β1 [18]
  IC50: 4.3 nM
huNav1.7α + β1-β2-β3 [19]
  IC50: 10 nM
huNav1.7α + β1-β2-β3 [20]
  IC50: 12 nM
huNav1.7α [21]
  Qpatch IC50: 123 nM
Rhesus Nav1.7α
  Qpatch IC50: 93 nM
huNav1.7α + β1-β2-β3 [22]
  Qpatch IC50: 2.6 nM
rhNav1.7α + β1-β2-β3 [23]
  Qpatch IC50: 2.8 nM

B6: F0103362B08 (parental)-FLAG-HIS6 (VHH)
VHH: EVQLVESGGGLVQAGGSLRLSCAASVRPFSTSAMGWFRQAPEKEREAVAGILWNGIVTYYADSVKGRFTISRDNAKNEVYLQMNKLKPEDTAVYYCALDRDYGGRSFSAYEYEYWGQGTLVTVSS
huNav1.7α + β1 [24]
  Qpatch IC50: 1 nM

B7: F0103454D07 (parental)-FLAG-HIS6 (VHH)
VHH: EVQLVESGGGLVQPGGSLRLSCVASGGIININYIAWYRQTPGKQRDLVARISSDDTIKYGDSVKGRFAMSRDKVKNMVHLQMNSLTTEDTGVYVCSALITPWTGDTRTYWGRGTLVTVSS
huNav1.7α + β1 [24]
  Qpatch IC50: 38 nM
